PMC8054193

Molecular target: Strep-SUMO-Bos1

Ssa1, sequence (P10591 whole entry): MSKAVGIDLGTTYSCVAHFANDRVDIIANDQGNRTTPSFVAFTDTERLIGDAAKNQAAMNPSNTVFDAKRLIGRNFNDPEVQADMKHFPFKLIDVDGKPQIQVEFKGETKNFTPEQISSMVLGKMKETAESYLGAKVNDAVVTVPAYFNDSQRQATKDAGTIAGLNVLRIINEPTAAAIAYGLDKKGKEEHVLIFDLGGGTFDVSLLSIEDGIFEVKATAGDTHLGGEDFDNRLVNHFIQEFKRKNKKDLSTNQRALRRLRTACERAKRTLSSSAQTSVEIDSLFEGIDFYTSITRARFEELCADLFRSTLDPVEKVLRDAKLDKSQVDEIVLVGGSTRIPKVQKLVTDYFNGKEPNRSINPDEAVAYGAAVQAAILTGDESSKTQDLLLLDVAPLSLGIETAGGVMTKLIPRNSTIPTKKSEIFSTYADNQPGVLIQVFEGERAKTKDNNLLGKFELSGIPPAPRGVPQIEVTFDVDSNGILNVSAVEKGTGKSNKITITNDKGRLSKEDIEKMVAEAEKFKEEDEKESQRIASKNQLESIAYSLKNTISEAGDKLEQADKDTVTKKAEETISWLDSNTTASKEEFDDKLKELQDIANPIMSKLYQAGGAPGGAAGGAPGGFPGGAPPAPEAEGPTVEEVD

In the case of “Ssa1 (from UniProt P10591 1-642) (natural protein)”, the K (Soluble) from the Ssa1 concentration dependence of soluble Bos1 (sedimentation of 3 μM Bos1, Western blot, fit to Equation 2), Ssa1 alone is reported as 0.73 µM and the K (Soluble) from the Ssa1 concentration dependence of soluble Bos1 (sedimentation of 3 μM Bos1, Western blot, fit to Equation 2), equimolar Ssa1 and Ydj1 is reported as 0.014 µM.
